Measured values reported in PMC4739419, “Mutations in the nucleotide binding and hydrolysis domains of Helicobacter pylori MutS2 lead to altered biochemical activities and inactivation of its in vivo function” (BMC Microbiology, 2016).

Tests used:
HpMutS2 = target: T1, HpMutS2 (Helicobacter pylori, UniProt O25338); assay type: biochemical; details: for support of HpMutS2 ATPase activity by metal ion: metal ion 5 mM, ATP 100 μM, HpMutS2 45 nM, 37 °C, 30 min
T1 construct: (A) HpMutS2 (1-762): Mol. wt; (kDa): 87.8; His6 (C); made in house; host or cells: E. coli Rosetta (DE3) pLysS
Method: To delineate the characteristics of the ATPase activity of HpMutS2, we initially determined the metal ion requirement for ATP hydrolysis by HpMutS2. Purified HpMutS2 was incubated with excess of cold ATP (100 μM) with or without metal ions (5 mM each), and ATP hydrolysis monitored by thin layer chromatography using radiolabeled ATP [γ-^32P] as tracer.
Additional files 1: Figure S1. Multiple sequence alignment of MutS2 proteins from different H. pylori strains. Multiple sequence alignment of MutS2 proteins from different bacteria was carried out using Clustal Omega (http://www.ebi.ac.uk/Tools/msa/clustalo/). The protein sequences were obtained from NCBI protein database. The conserved nucleotide binding Walker-A motif and nucleotde hydrolysis Walker-B motifs are framed. The arrow indicates H. pylori MutS2 protein sequence. Figure S2. ATPase activity of HpMutS2 and variants. (A) Divalent metal ion requirement for ATPase activity of HpMutS2. Mentioned divalent metal ions (5 mM each) were incubated separately with cold ATP (100 μM) with (+) or without (−) HpMutS2 (45 nM). After incubation at 37 °C for 30 min the reactions were stopped by EDTA (50 mM) and the products were separated by TLC. ATP [γ-^32P] was used as tracer to monitor the product formation. (B) Time dependent hydrolysis of ATP by HpMutS2. A mixture of cold ATP (1 mM) and ATP [γ-^32P] was incubated in presence of HpMutS2 (45 nM) at 37 °C . The reaction aliquots were removed at indicated time points. The reactions were stopped by adding EDTA (50 mM) and products were separated by TLC. […] (C) Effect of HpSmr domain deletion on ATPase activity of HpMutS2. Increasing concentrations of proteins were incubated with a mixture of cold ATP (1 mM) and ATP [γ-^32P] at 37 °C for 30 min. The reactions were processed as described in (A). […] Figure S3. Limited proteolysis. Proteins (4 μM) were incubated with chymotrypsin (1.25 ng) for 30 min at 37 °C. The heat denaturation of proteins was performed by heating them at 95 °C for 10 min. […] Reactions were stopped by adding 1X protease inhibitor cocktail (Sigma), heat denatured and the products were separated on SDS-PAGE (10 %). Lane M: Molecular weight marker. Protein bands were detected by staining with Coomassie Brilliant Blue. […]. […] (A-E) Effect of nucleotides on DNA binding properties of HpMutS2. Electrophoretic mobility shift assays were performed with indicated DNA substrates (0.16 nM) without and with nucleotides (1 mM). After incubation for 30 min on ice, the reaction mixture was electrophoresed on polyacrylamide gel (8 %). Schematic representation of DNA substrates used are shown at the left side of autoradiographs. Figure S5. Chase experiments. A preformed ssDNA-HpMutS2 complex was chased with increasing concentrations of (A) ATP (0.25–5 mM) and (B) ssDNA (7.5–500 nM). (C) A preformed SC pUC19 DNA-HpMutS2 complex was chased with increasing concentrations of ATP (0.25–5 mM) . The reactions were performed at 37 °C and the reaction mixture was electrophoresed on PAGE (8 %) in case of (A and B) or an agarose gel (0.8 %) in case of (C). The amount of displaced DNA was estimated by assuming the DNA without protein as 100 %. Figure S6. Western blot. Equal numbers of exponentially growing H. pylori cells were lysed in Laemmli buffer (1X) by boiling at 95 °C for 5 min. The proteins were separated by SDS-PAGE (10 %). The HpMutS2 and mutants were detected by probing with polyclonal antibodies against HpMutS2. Table S1. Sequence of oligonucleotides used to prepare DNA substrates. Table S2. DNA substrates used in this study (* represents position of ^32P). (PDF 636 kb)

[1] = tested on: Nc1ncnc2c1ncn2[C@@H]1O[C@H](COP(=O)(O)OP(=O)(O)OP(=O)(O)O)[C@@H](O)[C@H]1O; test: purified protein, by the assay type; details: pH 8.0; 37.0 °C
[2] = substrate: Nc1ncnc2c1ncn2[C@@H]1O[C@H](COP(=O)(O)OP(=O)(O)OP(=O)(O)O)[C@@H](O)[C@H]1O; test: ATPase assay by thin layer chromatography with [γ-32P]ATP as tracer and cold ATP varied, 50 mM Tris pH 8.0, 50 mM NaCl, 1 mM DTT, 5 mM MgCl2, 37 °C, no DNA, Michaelis-Menten non-linear regression.; assay type: biochemical
[3] = target: the molecule itself; test: SEC; Superose-6 HR 10/30, buffer B (50 mM Tris pH 8.0, 100 mM NaCl), 0.3 ml/min, approximately 150 ug protein injected; mass from a plot of Ve/Vo versus log of molecular mass of standards

[Mg+2] [Mg^2+]
support of HpMutS2 ATPase activity by metal ion (HpMutS2): supported a strong ATPase activity

HpMutS2-E413A (Helicobacter pylori 26695; E413A)
Km [1]: 373.2 ± 188.6 µM
Vmax [1]: 0.19 µM/min
kcat [1]: 0.0703 ± 0.011 s⁻¹

[Ca+2] [Ca^2+]
support of HpMutS2 ATPase activity by metal ion (HpMutS2): allowed the ATPase activity to various extents

[Co+2] [Co^2+]
support of HpMutS2 ATPase activity by metal ion (HpMutS2): allowed the ATPase activity to various extents

[Cu+2] [Cu^2+]
support of HpMutS2 ATPase activity by metal ion (HpMutS2): allowed the ATPase activity to various extents

O=C(O)CN(CCN(CC(=O)O)CC(=O)O)CC(=O)O [EDTA]
effect on Mg2+ dependent ATPase activity (HpMutS2): inhibited

HpMutS2-G338R (Helicobacter pylori 26695; G338R)
Km [1]: 939.3 ± 489.2 µM
Vmax [1]: 0.64 µM/min
kcat [1]: 0.237 ± 0.0555 s⁻¹

[Cd+2] [Cd ^2+]
support of HpMutS2 ATPase activity by metal ion (HpMutS2): allowed the ATPase activity to various extents

[Zn+2] [Zn^2+]
support of HpMutS2 ATPase activity by metal ion (HpMutS2): allowed the ATPase activity to various extents

[Mn+2] [Mn^2+]
support of HpMutS2 ATPase activity by metal ion (HpMutS2): allowed the ATPase activity to various extents

[Ni+2] [Ni^2+]
support of HpMutS2 ATPase activity by metal ion (HpMutS2): did not significantly support the ATPase activity

B1: Helicobacter pylori MutS2 (enzyme, Helicobacter pylori strain 26695, UniProt O25338 1-762, looked up)
chain: MSDAPKRSLNPTLMMNNNNTPPKPLEESLDLKEFIALFKTFFAKERDTIALENDLKQTFTYLNEVDAIGLPTPKSVKESDLIIIKLTKLGTLHLDEIFEIVKRLHYIVVLQNAFKTFTHLKFHERLNAIVLPPFFNDLIALFDDEGKIKQGANATLDALNESLNRLKKESVKIIHHYARSKELAPYLVDTQSHLKHGYECLLLKSGFSGAIKGVVLERSANGYFYLLPESAQKIAQKIAQIGNEIDCCIVEMCQTLSHSLQKHLLFLKFLFKEFDFLDSLQARLNFAKAYNLEFVMPSFTQKKMILENFSHPILKEPKPLNLKFEKSMLAVTGVNAGGKTMLLKSLLSAAFLSKHLIPMKINAHHSIIPYFKEIHAIINDPQNSANNISTFAGRMKQFSALLSKENMLLGVDEIELGTDADEASSLYKTLLEKLLKQNNQIIITTHHKRLSVLMAENKEVELLAALYDEEKERPTYTFLKGVIGKSYAFETALRYGVPHFLIEKAKTFYGEDKEKLNVLIENSSALERELKQKNEHLENALKEQEYLKNAWLLEMEKQKEIFHNKKLELEKSYQQALNILKSEVASKDTSSMHKEIHKASEILSKHKTNQEIPQIITNFQANEKARYKNESVLIVQILDKGYYWIETELGMRLKAHGSLLKKIQKPPKNKFKPPKTTIPKPKEASLRLDLRGQRSEEALDLLDAFLNDALLGGFEEVLICHGKGSGILEKFVKEFLKNHPKVVSFSDAPINLGGSGVKIVKL
notes: MutS2 of Helicobacter pylori strain 26695, full length, cloned in pET28b; Tetramer by gel filtration; a small fraction elutes near the void volume as multimers; also called HpMutS2; wild-type HpMutS2
Km [2]: 412.1 ± 83.43 µM
Vmax [2]: 1.88 µM/min
kcat [2]: 0.696 ± 0.048 s⁻¹
stoichiometry N [3]: 4
